Source: publication PMC10816394, “Radiosynthesis and Bioevaluation of ^99mTc-Labeled Isocyanide Ubiquicidin 29-41 Derivatives as Potential Agents for Bacterial Infection Imaging” (International Journal of Molecular Sciences, 2024)
No end group written: not given here.

Legend:
[1] = format: physicochemical; conditions: pH 7.4
Protocol: The lipophilicities of the ^99mTc-labeled complexes were evaluated by the distribution coefficient. The method for determining the distribution coefficient was as follows: 0.1 mL of the radiolabeled complex (3.7 MBq) was mixed with 0.9 mL of phosphate buffer (0.025 mol/L, pH 7.4) and 1 mL of n-octanol in a 5 mL centrifuge tube. The mixture was shaken on a vortex mixer at room temperature for 3 min and centrifuged at 5000 r/min for 5 min. Aliquots of 0.1 mL of both n-octanol and PBS were collected, and the radioactivity was determined with a γ-counter. The distribution coefficient was calculated as follows: Log D = lg[(counts per minute in n-octanol/counts per minute in PBS)]. Each group of measurements was carried out five times in parallel. The final results are expressed as the log D ± SD.

S. aureus-infected mice [2] = test system: S. aureus-infected mice; set-up: species or system female Kunming mice; conditions: mouse, in vivo
Protocol: Bacterial infection mouse models were constructed as follows: S. aureus (ATCC 25923) was cultured in a liquid medium at 37 °C for approximately 24 h, washed with PBS (pH 7.4) and diluted to obtain a suspension of 1 × 10^8 CFU/mL. […] The mice were sacrificed with isoflurane anesthesia at 120 min postinjection. […] To evaluate the metabolic properties of [^99mTc]Tc-CN5UBI 29-41, biodistribution studies were carried out in mice infected with S. aureus at 30, 120 and 240 min.

[3] = test system: turpentine-oil-inflamed mice; assay: Biodistribution in mice with turpentine-induced abscesses (sterile inflammation); conditions: tail vein injection, 120 min p.i., mean ± SD, n = 5
Protocol: The sterile inflammation mouse model was constructed as follows: turpentine oil (0.1 mL) was injected into the left thigh muscle of female Kunming mice (18–22 g). […] Each mouse was injected with 0.1 mL of [^99mTc]Tc-CN5UBI 29-41 (3.7 MBq/mL) via the tail vein. The mice were sacrificed under anesthesia with 1.5% isoflurane at 120 min postinjection. The organs of interest (the inflamed muscle in the left thigh, normal muscle in the right thigh, blood, heart, liver, lung, kidney, spleen, stomach, bone, small intestine and large intestine) were collected, weighed and measured by a γ-counter. The results are expressed as the percentage of the injected dose per gram of tissue ± standard deviation (%ID/g ± SD). After the mice were sacrificed, the tissues containing the thyroid around the trachea in the neck were collected and measured. The results are expressed as the percentage of the injected dose ± standard deviation (%ID ± SD).

S. aureus-infected mice [4] = assay: SPECT imaging in bacterial infection mice; format: in vivo; conditions: S. aureus in left forelimb muscle, 30~37 MBq tail vein, imaging at 30, 120 and 240 min p.i., n = 2
Protocol: The bacterial-infected mouse model was generated as follows: 100 μL of bacterial suspension containing approximately 1 × 10^8 CFU/mL (for S. aureus) was injected into the left forelimb muscle of the same mice. […] One hundred microliters of [^99mTc]Tc-CN5UBI 29-41 (30~37 MBq) was injected intravenously into each bacterially infected mouse via the tail vein (n = 2). […] The SPECT/CT images were reconstructed with HiSPECT 3.2.0 software (Bioscan, Washington, DC, USA) and processed with VivoQuant 2.5 software (Invicro, Needham, MA, USA).

[5] = in vivo; cited from earlier work
[6] = test system: bacterial infection sites; set-up: method as in PMID 14960656, PMID 10774881, PMID 12900285, PMID 15093821, PMID 11337578; conditions: literature values; cited from earlier work

| Substance | Abscess/Muscle ratio (target-to-nontarget ratio) (S. aureus-infected mice [2]) | Abscess/Blood ratio (S. aureus-infected mice [2]) | Log D ± SD, [^99mTc][Tc(Ⅴ)N]^2+ Core [1] | further results |
| --- | --- | --- | --- | --- |
| [^99mTc]Tc-CN5UBI 29-41: ^99mTc complex of ligand CN5UBI 29-41 with the [^99mTc]Tc(I)^+ core (TGRAKRRMQYNRR; also: CN5 chelator, position not given here, 99mTc(I) complex; UniProt P62861 103-115, looked up, fragment) | 4.15 ± 0.49 | – | – | Log D ± SD, [^99mTc][Tc(Ⅰ)]^+ Core [1]: −2.66 ± 0.02; Abscess uptake [3]: 0.73 ± 0.05 %ID/g; Abscess/Blood ratio [3]: 0.59 ± 0.06; Abscess/Muscle ratio (target-to-nontarget ratio) [3]: 2.52 ± 0.22; Blood uptake [3]: 1.28 ± 0.12 %ID/g; Bone uptake [3]: 0.82 ± 0.19 %ID/g; Gallbladder uptake [3]: 0.15 ± 0.04 %ID; Heart uptake [3]: 0.61 ± 0.03 %ID/g; Kidney uptake [3]: 13.05 ± 1.24 %ID/g; Large Intestines uptake [3]: 0.62 ± 0.18 %ID/g; SPECT image finding at infection site (S. aureus-infected mice [4]): accumulated at the site of bacterial infection |
| [^99mTc]Tc-CN9UBI 29-41: ^99mTc complex of ligand CN9UBI 29-41 with the [^99mTc]Tc(I)^+ core (TGRAKRRMQYNRR; also: CN9 chelator, position not given here, 99mTc complex with [99mTc]Tc(I)+ core; UniProt P62861 103-115, looked up, fragment) | 2.62 ± 0.42 | 0.69 ± 0.04 | – | Log D ± SD, [^99mTc][Tc(Ⅰ)]^+ Core [1]: −2.52 ± 0.01 |
| [^99mTc]Tc-UBI 29-41: directly ^99mTc-labeled UBI 29-41, reported bacterial infection tracer; structure speculated (TGRAKRRMQYNRR; also: directly 99mTc-labeled, no chelator, structure speculative; UniProt P62861 103-115, looked up, fragment) | – | – | – | target-to-nontarget ratio at sterile inflammation sites [5]: 1.1–1.2; target-to-nontarget ratio at bacterial infection sites [6]: 1.7–4.7 |
| [^99mTc]TcN-CN5UBI 29-41: ^99mTc complex of ligand CN5UBI 29-41 with the [^99mTc][Tc(V)N]^2+ core (TGRAKRRMQYNRR; also: CN5 chelator, position not given here, 99mTc complex with [99mTc][Tc(V)N]2+ core; UniProt P62861 103-115, looked up, fragment) | 2.10 ± 0.80 | 0.69 ± 0.22 | −2.71 ± 0.03 | – |
| [^99mTc]TcN-CN6UBI 29-41: ^99mTc complex of ligand CN6UBI 29-41 with the [^99mTc][Tc(V)N]^2+ core (TGRAKRRMQYNRR; also: CN6 chelator, position not given here, 99mTc complex with [99mTc][Tc(V)N]2+ core; UniProt P62861 103-115, looked up, fragment) | 3.32 ± 0.99 | 0.70 ± 0.15 | −2.65 ± 0.03 | – |
| [^99mTc]TcN-CN7UBI 29-41: ^99mTc complex of ligand CN7UBI 29-41 with the [^99mTc][Tc(V)N]^2+ core (TGRAKRRMQYNRR; also: CN7 chelator, position not given here, 99mTc complex with [99mTc][Tc(V)N]2+ core; UniProt P62861 103-115, looked up, fragment) | 2.47 ± 0.47 | 0.58 ± 0.12 | −2.58 ± 0.04 | – |
| [^99mTc]TcN-CN8UBI 29-41: ^99mTc complex of ligand CN8UBI 29-41 with the [^99mTc][Tc(V)N]^2+ core (TGRAKRRMQYNRR; also: CN8 chelator, position not given here, 99mTc complex with [99mTc][Tc(V)N]2+ core; UniProt P62861 103-115, looked up, fragment) | 2.81 ± 0.55 | 0.72 ± 0.13 | −2.55 ± 0.03 | – |
| [^99mTc]TcN-CN9UBI 29-41: ^99mTc complex of ligand CN9UBI 29-41 with the [^99mTc][Tc(V)N]^2+ core (TGRAKRRMQYNRR; also: CN9 chelator, position not given here, 99mTc complex with [99mTc][Tc(V)N]2+ core; UniProt P62861 103-115, looked up, fragment) | 2.79 ± 0.82 | 0.70 ± 0.29 | −2.41 ± 0.03 | – |
